Residue numbers refer to the chain shown, from its start.

In assay [1] the target is T1, GLI1_(1-232) S116E S130E, 35S-radiolabeled (human, UniProt P08151-1 1-232, S116E | S130E, [35S]-methionine label).
T1 sequence: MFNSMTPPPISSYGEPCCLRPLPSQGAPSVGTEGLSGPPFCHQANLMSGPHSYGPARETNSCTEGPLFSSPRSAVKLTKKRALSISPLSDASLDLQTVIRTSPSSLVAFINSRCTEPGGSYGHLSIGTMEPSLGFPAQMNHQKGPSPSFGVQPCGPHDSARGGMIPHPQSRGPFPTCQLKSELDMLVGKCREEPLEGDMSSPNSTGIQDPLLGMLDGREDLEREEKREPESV

The target of assay [2] is T2, GLI1_(1-232) S116E, 35S-radiolabeled (human, UniProt P08151-1 1-232, S116E, [35S]-methionine label).
T2 sequence: T1 sequence with E130S

In assay [3] the target is T3, GLI1_(1-232) S102E S116E S130E, 35S-radiolabeled (human, UniProt P08151-1 1-232, S102E | S116E | S130E, [35S]-methionine label).
T3 sequence: T1 sequence with S102E

For assay [4], the target named is T4, GLI1_(1-232) S102E S130E, 35S-radiolabeled (human, UniProt P08151-1 1-232, S102E | S130E, [35S]-methionine label).
T4 sequence: T1 sequence with S102E, E116S

In assay [5] the target is T5, full-length GLI1, wild type, 35S-radiolabeled (human, UniProt P08151-1 1-1106, [35S]-methionine label).
T5 construct: human GLI1, full length (1,106 residues); the plasmid used for in vitro translation of full-length GLI1 is not described; also called full-length GLI1 protein; FL-GLI1; source: in vitro transcription/translation, partially purified by ammonium sulfate precipitation
T5 sequence (looked up): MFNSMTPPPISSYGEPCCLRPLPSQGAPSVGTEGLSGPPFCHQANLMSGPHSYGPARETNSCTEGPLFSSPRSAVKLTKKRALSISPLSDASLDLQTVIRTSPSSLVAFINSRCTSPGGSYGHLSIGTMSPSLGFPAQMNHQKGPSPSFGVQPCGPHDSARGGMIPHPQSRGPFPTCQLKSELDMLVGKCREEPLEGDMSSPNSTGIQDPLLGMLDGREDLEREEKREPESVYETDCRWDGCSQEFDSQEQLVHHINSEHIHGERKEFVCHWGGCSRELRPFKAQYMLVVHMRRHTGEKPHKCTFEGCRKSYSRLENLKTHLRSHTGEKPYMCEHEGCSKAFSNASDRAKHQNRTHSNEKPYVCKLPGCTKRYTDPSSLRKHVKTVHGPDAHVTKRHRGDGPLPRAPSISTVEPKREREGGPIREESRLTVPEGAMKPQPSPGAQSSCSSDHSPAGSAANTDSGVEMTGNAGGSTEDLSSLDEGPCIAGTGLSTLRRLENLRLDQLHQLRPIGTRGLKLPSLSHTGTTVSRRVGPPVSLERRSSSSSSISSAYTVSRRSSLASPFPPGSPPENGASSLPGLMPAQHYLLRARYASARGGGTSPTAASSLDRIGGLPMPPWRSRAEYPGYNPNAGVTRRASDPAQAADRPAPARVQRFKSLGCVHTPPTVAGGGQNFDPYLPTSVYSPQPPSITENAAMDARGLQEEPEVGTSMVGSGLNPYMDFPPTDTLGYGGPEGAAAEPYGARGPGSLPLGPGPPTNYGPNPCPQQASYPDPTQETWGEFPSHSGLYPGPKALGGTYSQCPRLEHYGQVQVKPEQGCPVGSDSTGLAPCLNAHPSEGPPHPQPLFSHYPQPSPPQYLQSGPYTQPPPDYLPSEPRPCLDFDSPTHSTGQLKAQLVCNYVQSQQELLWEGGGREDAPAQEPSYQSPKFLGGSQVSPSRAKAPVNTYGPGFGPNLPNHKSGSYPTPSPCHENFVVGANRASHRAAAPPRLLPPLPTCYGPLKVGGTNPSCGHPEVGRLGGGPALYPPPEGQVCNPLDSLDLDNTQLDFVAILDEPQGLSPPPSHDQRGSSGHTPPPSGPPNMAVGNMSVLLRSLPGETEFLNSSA
The assay can be described thus: pull-down; purified GST-SUFU, 1.25-80 nM, captured on glutathione-Sepharose beads; ∼1 pmol 35S-GLI1 (1-232 or full length) in 200 μl; 15 min at 30°C, then 1 h at room temperature; Binding Buffer + 1 mg/ml BSA; bound GLI1 quantified by SDS-PAGE and Phosphorimager; Kd from binding isotherms. The settings on record: one partner purified.

B1: GST-SUFU (fusion of GST to full-length human SUFU) (natural protein, UniProt Q9UMX1-1 1-484, looked up)
chain: MAELRPSGAPGPTAPPAPGPTAPPAFASLFPPGLHAIYGECRRLYPDQPNPLQVTAIVKYWLGGPDPLDYVSMYRNVGSPSANIPEHWHYISFGLSDLYGDNRVHEFTGTDGPSGFGFELTFRLKRETGESAPPTWPAELMQGLARYVFQSENTFCSGDHVSWHSPLDNSESRIQHMLLTEDPQMQPVQTPFGVVTFLQIVGVCTEELHSAQQWNGQGILELLRTVPIAGGPWLITDMRRGETIFEIDPHLQERVDKGIETDGSNLSGVSAKCAWDDLSRPPEDDEDSRSICIGTQPRRLSGKDTEQIRETLRRGLEINSKPVLPPINPQRQNGLAHDRAPSRKDSLESDSSTAIIPHELIRTRQLESVHLKFNQESGALIPLCLRGRLLHGRHFTYKSITGDMAITFVSTGVEGAFATEEHPYAAHGPWLQILLTEEFVEKMLEDLEDLTSPEEFKLPKEYSWPEKKLKVSILPDVVFDSPLH
notes: human SUFU, full length (residues 1-484), BamHI-SUFU-SalI cassette in pGEX-LB; pGEX-LB carries a Gly-Gly-Gly-Gly-Gly-Ser-Gly stretch between GST and the fused protein; also called full-length GST-SUFU; source: Escherichia coli, purified (glutathione-Sepharose); not shown: GST, N-terminal, kept
As a reminder, the Kd is the equilibrium constant for the complex coming apart. As to B1, the Kd is 19 nM in assay [1]; 7 nM in assay [2]; 520 nM in assay [3]; 300 nM in assay [4]; 14 ± 4 nM in assay [5].
